According to publication PMC3257533:

Target: paclitaxel-stabilized microtubules
Assay: co-sedimentation

B1: MBP-Nsk1 (recombinant maltose-binding protein-Nsk1, wild type) (natural protein)
chain: MAYKLSLSAVEPLLIFPAAPFSTKKEKSTFQNNLISSDVFSSALKPLSPLKSLVADFSTHSNPSKDNQLISPPKINHREFLNEEKESDTQTRYLKQLINICNSPSKNHETSLSPSKSTIDNNERKLDNEIDNYKHDVKYSPYKGQGKTSNPSQGTTKCPGIFEEDNFFSVSPKRRKNLFEKYGKTDLGKPARVPSPKKSLSSTIKSPPSRVKLPTSILSKSPPLKVPNKNRSSTFSPLRTPTSSSKTFVIVDHSTPSPPSIRTKLEAFAPNSTFATQKRLRRLATLESSPALRSTLKSLQSKSSPVKLLKLKEEKAKIKNQLFKSEEEKDPVGKQKLPLESSLSPLDHSSAEKEMQKAPAKNKRRRTGSLETGLYPKESPTPSKKRSKRVLWSLKHIVSPGNREKHSLNSTPESIMKKDTKWPQNLAKNNINSEPNTPTKSNIDTGKAHSARAHKTRKNIQS
- Kd: 0.23 µM
